The target of assay [1] is T1, cynomolgus monkey B7-H7 (soluble analyte in SPR) (cynomolgus monkey).
T1 sequence: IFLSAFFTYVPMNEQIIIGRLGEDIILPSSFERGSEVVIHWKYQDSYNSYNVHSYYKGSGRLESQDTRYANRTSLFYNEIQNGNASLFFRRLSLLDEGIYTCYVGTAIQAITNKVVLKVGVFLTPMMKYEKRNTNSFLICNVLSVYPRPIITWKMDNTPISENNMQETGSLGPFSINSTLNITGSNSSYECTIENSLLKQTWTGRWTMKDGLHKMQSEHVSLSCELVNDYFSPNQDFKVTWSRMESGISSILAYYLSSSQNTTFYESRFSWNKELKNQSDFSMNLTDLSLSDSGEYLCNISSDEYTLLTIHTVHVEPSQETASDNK
The assay is described as follows: SPR (Biacore), antibody captured by anti-Fc on CM5 chip, B7-H7 injected, 37 C. (In general: SPR reads the build-up and loss of mass on a sensor chip optically.)

Assay [2] shares this target. The assay is described as follows: SPR (Biacore).

B1: anti-B7-H7 antibody 2F10 (antibody, V domains shown)
VH: EIQLQQTGPELVKPGASLRISCKASGYSFTDYIIVWVKQNQGKNLDWIEKINPYYGTTTYNLRFEDKATLTVNKSSTTAYMQLNSLTSEDSAVYYCARWDYVSTLFAMDYWGQGTSITVSS
VL: DIVMTQSHKVMSTSVGDRVSIICKASQDVGTAVAWYQQKPGQSPKLLIYWASTRHTGVPDRFTGSGSGTDFILTITNVQSENLANYFCQQYKRYYTFGGGTKLEIK
Consider B1, for which the Kd (commonly the constant that tells how readily two partners part at equilibrium) in assay [1] was found to be 8.6 nM.

B2: anti-B7-H7 antibody 2D7 (antibody, V domains shown)
VH: EVQLQQSGPELVKPGASVKISCKTSGYTFTEYTMHWVKQSHGKSLEWIGGINPNNYGAPYNQKFKGKATLTVDKSSNTAYMELRSLTSEDSAIYYCASGGYYFDYWGQGTTLTVSS
VL: DIVMTQSHKFMSTSFGDRVSITCKASQDVGTAVAWYQQKLGQSPKLLISWAFTRHTGVPDRFTGSGSGTDYTLTISSLQAEDLALYYCQQHYDTPFTFGSGTKLEIK
With B2, the Kd in assay [1] was 0.6 nM; in assay [2] it was 0.65 nM. The koff (as a rule, the rate constant with which the complex falls apart) in assay [2] was found to be 0.00011 s⁻¹.

B3: anti-B7-H7 antibody 3H6 (antibody, V domains shown)
VH: EVQLQQSGPELVKPGASVKISCKTSGYTFTEYTMHWVKQSHGKSLEWIGGINPNNGGAPYNQKFKGKATLTVDKSSSTAYMELRSLTSEDSAVYYCARGGYYFDYWGQGTTLTVSS
VL: DIVMTQSHKFMSTSVGDRVSITCKASQDVSTAVAWYQQKSGQSPKLLIYWASTRHTGVPDRFTGSGSGTDYTLTISSVQAEDLALYYCQQHYDTPFTFGGGTKLEIK
Consider B3, for which, in assay [1], the Kd amounted to 6.9 nM.

B4: chimeric 2D7 antibody comprising the murine heavy chain and light chain variable regions of 2D7 and a human Fc region (antibody, V domains shown)
VH: EVQLQQSGPELVKPGASVKISCKTSGYTFTEYTMHWVKQSHGKSLEWIGGINPNNYGAPYNQKFKGKATLTVDKSSNTAYMELRSLTSEDSAIYYCASGGYYFDYWGQGTTLTVSS
VL: DIVMTQSHKFMSTSFGDRVSITCKASQDVGTAVAWYQQKLGQSPKLLISWAFTRHTGVPDRFTGSGSGTDYTLTISSLQAEDLALYYCQQHYDTPFTFGSGTKLEIK
For B4, in assay [2], the Kd came out at 0.14 nM and the koff came out at 3.5e-05 s⁻¹.

B5: anti-B7-H7 antibody 5C9 (antibody, V domains shown)
VH: QVQLQQSGAELAKPGASVKMSCKASGYTFTSFWIHWIKQRPGQGLEWIGYIIPNTDYTEYNQKFKDKATFTADKSSSTAYMQLSSLTSEDSAVFYCARGLRGAYYFDYWGQGTTLTVSS
VL: DIVLTQSPASLAVSLGLRATISCRSSQSVSTSTNGYMHWYQQKPGQPPKLLIMYASNLESGVPARFSGSGSGTDFTLNIHPVDEEDTATYYCQHSWVLPYTFGGGTKLEIK
Molecule B5 gave a Kd in assay [1] of 4.8 nM.

B6: anti-B7-H7 antibody 16D5 (antibody, V domains shown)
VH: QVQLQQSAAELARPGASVKMSCKASGYTFTTYTMHWVKQRPGQGLEWIGYINPSRGYSDYSQKFQGKSTLTTDKSSNTAYIQLTSLTSEDSAVYFCARGGYDFDYWGQGTTLTVSS
VL: DIVMTQSHKFMSTSVGDRVSITCKASQDVGTAVAWYQQKPGQSPKLLLYWASTRHTGVPDRFTGSGSGTDYTLTISSVQAEDLALYHCQQHFITPYTFGGGTKLEIK
Turning to B6, the Kd in assay [1] was determined as 6.9 nM.

B7: anti-B7-H7 antibody 5F7 (antibody, V domains shown)
VH: QEQLQQPGTELVKPGASVKISCKASGYTFSSYSMHWVKLTPGQGLEWMGTIYPGNENTSYNQKFKGKATLTADKSSSTAYMQLSSLTSEDSAVYYCARGGYYFDYWGQGTTLTVSS
VL: DIVMTQSHKFLSTSVGDRVSITCKASQDVSTAVAWYQQKPGQSPKLLIYWASTRHTGVSDRFTGSGSGTDFTLTISSVQAEDLALYYCQQHFDIPYWFGGGTKLEIK
In assay [1], B7 showed a Kd of 1.2 nM.

B8: anti-B7-H7 antibody 1D3 (antibody, V domains shown)
VH: EVQLQQSGPELEKPGASVKISCKASGYSFTGYNMNWVKESNGRSLEWIGNIDPYSGGSTYNQKFKGKATMTVDKSSSTAYMQLKSLTSEDSAVYYCARSVYDAPWLAHWGQGTLVTVSA
VL: DIQMTQSPASLSASVGETVTITCRASENIYIYLAWYQQKQGKSPQLLVYNAKTLAEGVPSRFSGSGSGTQFSLKINRLQPEDFGNYYCQHHYGTPPTFGGGTKLEIK
Regarding B8, the Kd in assay [1] amounted to 3.2 nM.

B9: anti-B7-H7 antibody 5B10 (antibody, V domains shown)
VH: EVQLQQSGPELEKPGASVKISCKASGYSFTGYNMNWVKQSNGKSLEWIGNIDPYSGGSTYNQKFKGKATLTVDKSSSTASLQLKSLTSEDSSVYYCARSFYDAPYLTYWGQGTLVTVSA
VL: DIQMTQSPTSLSASVGETVTITCRASENIFIYLAWYQQKQGKSPQLLVFNAKTLAEGVPSRFSGSGSGTQFSLKINSLRPEDFGTYYCQHHYGTPPTFGGGTKLEV
With B9, the Kd in assay [1] is 4.6 nM.

B10: anti-B7-H7 antibody 28F5 (antibody, V domains shown)
VH: QVQLKESGPGLVAPSQSLSITCTVSGFSLTGYGVNWVRQPPGKGLEWLGVIWGDGSTDYNSVLKSRLSISKDNSKSQVFLKMNSLQTDDTARYYCAREATEYLYWYFDVWGAGTTVTVSS
VL: DIVLTQSPASLAVSLGQRATISCRASESVEYYGSSLMQWYQQKPGQPPKLLIFAASNVESGVPPRFSGSGSGTDFNLNIHPVDEDDIAMYFCQQGRRVPWTFGGGTKLEIK
B10: the dissociation constant (Kd) in assay [1] was 4.5 nM.

B11: humanized anti-B7-H7 antibody Hz2D7 (antibody, human IgG1, kappa, V domains shown)
VH: QVQLVQSGAEVKKPGASVKVSCKTSGYTFTEYTMHWVRQAPGQGLEWMGGINPNNYGAPYNQKFKGRVTMTVDTSISTAYMELSRLRSDDTAVYYCASGGYYFDYWGQGTLVTVSS
VL: DIQMTQSPSSLSASVGDRVTITCKASQDVGTAVAWYQQKPGKAPKLLIYWAFTRHTGVPSRFSGSGSGTDYTLTISSLQPEDFATYYCQQHYDTPFTFGQGTKVEIKR
As for B11, in assay [2], the Kd is 0.4 nM and the koff turned out to be 7.6e-05 s⁻¹.

(Values after patent publication US20210198366A1.)
